The labels stand for the following.
B2: HPS protein fragment 210-1292 fused to the Gal4 activator domain (reverse screen) (other)
chain: KCVLVATEGAEVLFYWTDQEFEESLRLKFGQSENEEEELPALEDQLSTLLAPVIISSMTMLEKLSDTYTCFSTENGNFLYVLHLFGECLFIAINGDHTESEGDLRRKLYVLKYLFEVHFGLVTVDGHLIRKELRPPDLAQRVQLWEHFQSLLWTYSRLREQEQCFAVEALERLIHPQLCELCIEALERHVIQAVNTSPERGGEEALHAFLLVHSKLLAFYSSHSASSLRPADLLALILLVQDLYPSESTAEDDIQPSPRRARSSQNIPVQQAWSPHSTGPTGGSSAETETDSFSLPEEYFTPAPSPGDQSSGSTIWLEGGTPPMDALQIAEDTLQTLVPHCPVPSGPRRIFLDANVKESYC
notes: Residue limits are derived from the printed nucleotide limits; also called HPS protein domain 210-1292; HPS U65676 210-1292; not shown: order of the two pie
B3: HPS protein fragment 1272-2357 fused to the Gal4 activator domain (reverse screen) (other)
chain: NVKESYCPLVPHTMYCLPLWQGINLVLLTRSPSAPLALVLSQLMDGFSMLEKKLKEGPEPGASLRSQPLVGDLRQRMDKFVKNRGAQEIQSTWLEFKAKAFSKSEPGSSWELLQACGKLKRQLCAIYRLNFLTTAPSRGGPHLPQHLQDQVQRLMREKLTDWKDFLLVKSRRNITMVSYLEDFPGLVHFIYVDRTTGQMVAPSLNCSQKTSSELGKGPLAAFVKTKVWSLIQLARRYLQKGYTTLLFREGDFYCSYFLWFENDMGYKLQMIEVPVLSDDSVPIGMLGGDYYRKLLRYYSKNRPTEAVRCYELLALHLSVIPTDLLVQQAGQLARRLWEASRIPLL
notes: Codes for the same HPS residues as the 1272-2306 construct but is a separate construct; also called HPS protein domain 1272-2357; HPS U65676 1272-2357; not shown: order of the two pie

In assay [1] the target is B3. Nature of the assay: yeast two-hybrid, reverse screen; listed in Table I as an interaction with HPS 1272-2357, 1 isolate. As for the experimental part:
(§1) The two mating strains ([…]) were then diluted in YAPD media (see Id.) filtered onto nitrocellulose membranes and incubated at 30° C. for 6–8 hours. […] The mating products were plated on synthetic complete (SC) media (see Kaiser, Michaelis & Mitchell, Eds., 1994. *Methods in Yeast Genetics*, 1994 *Ed.* (Cold Spring Harbor Laboratory Press, New York, N.Y.) lacking adenine and lysine (to select for successful mating), leucine and tryptophan (to select for expression of genes encoded by both the bait and prey plasmids), and uracil and histidine (to select for protein interactions). This medium is hereinafter referred to as SCS medium, for SC Selective medium.
(§2) Selected clones were subsequently examined for expression of β-galactosidase to confirm the formation of an HPS protein•HPS protein-IP interaction. […]
(§3) The cells contained within colonies which were "positive" for protein interaction contained a mixture of DNA-binding and activation-domain plasmids. […] Approximately 10 μl of each selected isolate was lysed, the inserts within the pAD-GAL4 or pGAD-GH for the activation domain plasmids and pBD-GAL4 or pGBT9BS plasmids were PCR amplified using primers specific for the flanking sequences of each vector and approximately 300 nucleotides (of what would be the protein's amino-terminus following translation) was determined using an ABI 377 sequenator. […]

Assay [2] has as its target T1, HPS protein fragment 1272-2306 fused to the Gal4 activator domain (reverse screen) (yeast; human, UniProt Q92902 356-700).
T1 construct: Residue limits are derived from the printed nucleotide limits; also called HPS protein domain comprised of nucleotides 1272-2306; HPS U65676 1272-2306; not shown: order of the two pie
T1 sequence: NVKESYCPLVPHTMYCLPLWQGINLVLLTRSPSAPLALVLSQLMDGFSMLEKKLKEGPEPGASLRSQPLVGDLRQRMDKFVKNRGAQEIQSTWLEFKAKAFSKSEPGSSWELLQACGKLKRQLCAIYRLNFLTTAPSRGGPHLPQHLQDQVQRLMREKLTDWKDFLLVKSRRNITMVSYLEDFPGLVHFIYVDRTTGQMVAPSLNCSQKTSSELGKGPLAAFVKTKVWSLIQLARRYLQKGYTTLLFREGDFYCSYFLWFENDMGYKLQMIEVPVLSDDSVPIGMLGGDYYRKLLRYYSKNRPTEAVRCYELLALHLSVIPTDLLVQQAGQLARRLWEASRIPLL
Nature of the assay: yeast two-hybrid, reverse screen; listed in Table I as an interaction with HPS 1272-2306, 1 isolate. How it is done: as §1, §2, §3

In assay [3] the target is T2, Atrophin-1, prey insert starting at nucleotide 2649 of GenBank U23851, fused to the Gal4 DNA binding domain (yeast; human, UniProt P04386 1-147).
T2 construct: Prey of the reverse screen; Residue limits derived from the printed nucleotide start; also called Atrophin I; atrophin-I
Nature of the assay: yeast two-hybrid, reverse screen; listed in Table I as an interaction with HPS 210-1292, 1 isolate. As for the experimental part: as §1, §2, §3

Assay [4] addresses T3, CDK2, prey insert starting at nucleotide 4 of GenBank X61622, fused to the Gal4 DNA binding domain (yeast; human, UniProt P04386 1-147).
T3 construct: Prey of the reverse screen; Residue limits derived from the printed nucleotide start; also called CDK2 X61622 4-*
Description: yeast two-hybrid, reverse screen; listed in Table I as an interaction with HPS 1272-2357, 1 isolate. As for the experimental part:
as §1, §2, §3

Assay [5] deals with B2. Description: yeast two-hybrid, reverse screen; listed in Table I as an interaction with HPS 210-1292, 2 isolates. As for the experimental part:
as §1, §2, §3

Assay [6] addresses T4, HPS protein bait fragment 210-1292 fused to the Gal4 DNA binding domain (forward screen) (yeast; human, UniProt P04386 1-147).
T4 construct: Residue limits are derived from the printed nucleotide limits; also called Hermansky-Pudlak Syndrome protein; HPS U65676 210-1292
Description: yeast two-hybrid, forward screen; listed in Table I as an interaction with HPS 210-1292, 3 isolates. As for the experimental part:
as §1, §2, §3

B1: 14-3-3 protein eta isoform, prey insert starting at nucleotide 764 of GenBank X80536, fused to the Gal4 DNA binding domain (other, yeast)
chain: MKLLSSIEQACDICRLKKLKCSKEKPKCAKCLKNNWECRYSPKTKRSPLTRAHLTEVESRLERLEQLFLLIFPREDLDMILKMDSLQDIKALLTGLFVQDNVNKDAVTDRLASVETDMPLTLRQHRISATSSSEESSNKGQRQLTVSQACLLAKQAFDDAIAELDTLNEDSYKDSTLIMQLLRDNLTLWTSDQQDEEAGEGN
notes: Prey from a human fetal brain cDNA library, reverse screens; Residue limits derived from the printed nucleotide start; also called 14-3-3 eta
As for B1, the binding result in assay [1] and in assay [2] was “binds” throughout.
On to B2, for which, in assay [3], the binding result was “binds”.
As for B3, the binding result in assay [4] is given as “binds”.

B4: BMK1 alpha kinase, prey insert starting at nucleotide 2431 of GenBank U29725, fused to the Gal4 DNA binding domain (other, yeast)
chain: MKLLSSIEQACDICRLKKLKCSKEKPKCAKCLKNNWECRYSPKTKRSPLTRAHLTEVESRLERLEQLFLLIFPREDLDMILKMDSLQDIKALLTGLFVQDNVNKDAVTDRLASVETDMPLTLRQHRISATSSSEESSNKGQRQLTVSGAGYGVGFDLEEFLNQSFDMGVADGPQDGQADSASLSASLLADWLEGHGMNPADIESLQREIQMDSPMLLADLPDLQDP
notes: Prey of the reverse screen, 2 isolates; Residue limits derived from the printed nucleotide start
For B4, in assay [5], the binding result is on record as “binds”.

B5: HPIP1 (prey sequence of 619 nucleotides, interaction starting at nucleotide 1) fused to the Gal4 activator domain (other, not shown: large carriers)
chain: GTRLSINPNNHSWLIIQADIYFATNQYSAALHYYLQAGAVCSDFFNKAVPPDVYTDQVIKRMIKCCSLLNCHTQVAILCQFLREIDYKTAFKSLQEQNSHDAMDSYYDYIWDVTILEYLTYLHHKRGETDKRQIAIKAIGQTELNASNPEEVLQLAAQRRKKKFLQAMAKLYF
notes: Prey of the forward screen, 3 identical clones from a human fetal brain cDNA library; also called cg49368.b1; cg49367.h11
Consider B5, for which the binding result in assay [6] is listed as “binds”.
